# Results as given in PMC10204187, “The effects of nature‐inspired amino acid substitutions on structural and biochemical properties of the E. coli L‐asparaginase EcAIII” (Protein Science : A Publication of the Protein Society, 2023).
# Positions count from the first letter of the chain named. Names and notes keep the numbering of the source.
# B1: EcAIII (Escherichia coli K-12) (protein)
# chain 1: GKAVIAIHGGAGAISRAQMSLQQELRYIEALSAIVETGQKMLEAGESALDVVTEAVRLLEECPLFNAGIGAVFTRDETHELDACVMDGNTLKAGAVAGVSHLRNPVLAARLVMEQSPHVMMIGEGAENFAFARGMERVSPEIFSTSLRYEQLLAARKEGATVLDHSGAPLDEKQKMG
# chain 2: TVGAVALDLDGNLAAATSTGGMTNKLPGRVGDSPLVGAGCYANNASVAVSCTGTGEVFIRALAAYDIAALMDYGGLSLAEACERVVMEKLPALGGSGGLIAIDHEGNVALPFNTEGMYRAWGYAGDTPTTGIYREKGDTVATQ
# notes: untagged as described; EcAIII gene in pET11d, bacterial expression; precursor autoproteolytically matured to subunits alpha and beta from one gene, (alphabeta)2; purified by DEAE and SEC
# B2: EcAIII (Escherichia coli K-12; M200L) (protein)
# chain 1: B1 chain 1
# chain 2: B1 chain 2 with M22L
# notes: as for B1
# B3: EcAIII (Escherichia coli K-12; M200T) (protein)
# chain 1: B1 chain 1
# chain 2: B1 chain 2 with M22T
# notes: as for B1
# B4: EcAIII (Escherichia coli K-12; M200W) (protein)
# chain 1: B1 chain 1
# chain 2: B1 chain 2 with M22W
# notes: as for B1
# B5: EcAIII (Escherichia coli K-12; M200K) (protein)
# chain 1: B1 chain 1
# chain 2: B1 chain 2 with M22K
# notes: as for B1
# B6: EcAIII (Escherichia coli K-12; M200I) (protein)
# chain 1: B1 chain 1
# chain 2: B1 chain 2 with M22I
# notes: as for B1
# Target: T1, EcAIII (Escherichia coli, UniProt P37595, M200L)
# T1 construct: gene iaaA; untagged as described; EcAIII gene in pET11d, bacterial expression; precursor autoproteolytically matured to subunits alpha and beta from one gene, (alphabeta)2; purified by DEAE and SEC
# Test: X-ray crystal structure
# Type: binding
# Conditions: covalent; beta-acyl-enzyme intermediate on Thr179, chain D
# T1 sequence (P37595 179-321 M200L, one chain of several): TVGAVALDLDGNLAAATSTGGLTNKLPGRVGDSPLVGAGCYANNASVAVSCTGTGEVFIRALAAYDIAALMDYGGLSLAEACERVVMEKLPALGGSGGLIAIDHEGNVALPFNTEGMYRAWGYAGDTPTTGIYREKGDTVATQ
row,Molecule,X-ray crystal structure
1,NC(=O)C[C@H](N)C(=O)O [L-Asn],"in the structure of variant M200L in chain D, we identified an acyl‐enzyme intermediate"

# Target: T2, EcAIII (Escherichia coli, UniProt P37595, M200T)
# T2 construct: gene iaaA; untagged as described; EcAIII gene in pET11d, bacterial expression; precursor autoproteolytically matured to subunits alpha and beta from one gene, (alphabeta)2; purified by DEAE and SEC
# Test: X-ray crystal structure
# Type: binding
# Conditions: M200T#m monoclinic, 1.84 Å; Gly added at 1:1 molar ratio; active site, two of four sites
# T2 sequence (P37595 179-321 M200T, one chain of several): as the sequence (P37595 179-321 M200L, one chain of several) above, with L22T counted along it
row,Molecule,X-ray crystal structure
1,NCC(=O)O [Gly],"In the structure M200T#m, glycine molecules were found in two out of four active sites."

# Substrate: NC(=O)C[C@H](N)C(=O)O
# Test: purified protein
# Type: biochemical, Escherichia coli
# Conditions: 20 mM Tris-HCl pH 8.0, 20 °C, L-Asn 0-84 mM
Molecule,Km,kcat
B1,22 ± 3 mM,501 ± 22.3 s⁻¹
B2,37 ± 5 mM,195 ± 12.7 s⁻¹
B3,64 ± 6 mM,217 ± 10.6 s⁻¹
B4,36 ± 10 mM,290 ± 37.3 s⁻¹
B5,40 ± 9 mM,127 ± 11.9 s⁻¹
B6,35 ± 4 mM,632 ± 37.9 s⁻¹
